The data set deals with the molecule itself. In words: SEC.

B1: recombinant A/WSN/1933 (H1N1) NP, NΔ7NP with C-terminal His tag (WT) (natural protein)
chain: RSYEQMETDGERQNATEIRASVGKMIGGIGRFYIQMCTELKLSDYEGRLIQNSLTIERMVLSAFDERRNKYLEEHPSAGKDPKKTGGPIYRRVDGKWMRELILYDKEEIRRIWRQANNGDDATAGLTHMMIWHSNLNDATYQRTRALVRTGMDPRMCSLMQGSTLPRRSGAAGAAVKGVGTMVMELIRMIKRGINDRNFWRGENGRRTRIAYERMCNILKGKFQTAAQRAMVDQVRESRNPGNAEFEDLIFLARSALILRGSVAHKSCLPACVYGPAVASGYDFEREGYSLVGIDPFRLLQNSQVYSLIRPNENPAHKSQLVWMACHSAAFEDLRVSSFIRGTKVVPRGKLSTRGVQIASNENMETMESSTLELRSRYWAIRTRSGGNTNQQRASSGQISIQPTFSVQRNLPFDRPTIMAAFTGNTEGRTSDMRTEIIRLMESARPEDVSFQGRGVFELSDEKAASPIVPSFDMSNEGSYFFGDNAEEYDN
notes: also called WT NP; pET28a-NΔ7NP
Regarding B1, the binding result was “binds”.

Source of the values: paper PMC12788653 (PLOS Pathogens, 2025).
